This note sets out measurements from publication PMC5464678 (The Journal of Physical Chemistry Letters, 2017).

In the assay the target is T1, Cnu (UniProt P64467 1-71).
T1 sequence (looked up): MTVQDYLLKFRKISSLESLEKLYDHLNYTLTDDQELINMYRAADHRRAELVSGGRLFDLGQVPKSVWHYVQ
The assay can be described thus: fluorescence polarisation; tryptophan fluorescence anisotropy of Cnu, titrated with H-NS(1-59) at select temperatures (278 to 310 K); apparent dissociation constants from fits assuming a 1:1 binding equilibrium. As to conditions: both partners purified. Background: Fluorescence polarisation rises when a labelled molecule tumbles more slowly, as on binding a larger partner.

B1: H-NS_(1–59) (domain or fragment, UniProt P0ACF8 1-59, looked up)
chain: MSEALKILNNIRTLRAQARECTLETLEEMLEKLEVVVNERREEESAAAAEVEERTRKLQ
As for B1, the “fold decrease of binding affinity, 310 K against 278 K” value was around 5 fold.
